Measured values from US20120115870A1, “CONTROL OF INTRAOCULAR PRESSURE USING ALK5 MODULATION AGENTS” (ALCON RESEARCH, LTD., priority 2005, published 2012).

Experiments:
[1] = test system: TGF-β2-treated perfused human anterior segment model; experiment: Perfusate fibronectin in TGF-β2-treated perfused human anterior segment model (FIG. 2); details: human anterior segments treated with TGF-β2 and compound vs TGF-β2 only
Experimental: Human ocular perfusion organ culture was performed as described in available literature. [Tschumper et al., Curr Eye Res., 1990; Vol. 9:363-369; Clark et al., Invest Ophthalmol Vis Sci., 1995; Vol. 36:478-489; Pang et al., J Glaucoma, 2000; Vol. 9:468-479; Pang et al., Invest Ophthalmol Vis Sci., 2003; Vol. 44:3502-3510]. Briefly, anterior segments were dissected and mounted into custom Plexiglas culture chambers, then perfused with serum-free Dulbecco's modified Eagle's medium. IOP was monitored every 5 seconds and averaged each hour. Perfused tissue was allowed to equilibrate at 37° C. and 5% CO2 until a stable baseline IOP was achieved, typically 2-4 days; tissues with unstable IOP were discarded. Stable tissues were then further perfused with media containing the test compound(s) as indicated and changes in IOP were recorded. Eluate samples were collected daily for ELISA analysis of fibronectin and PAI-1 content. Tissues were fixed and evaluated for viability/morphology by light and electron microscopy at termination of each study. Data from unacceptable tissues were excluded from results. Criteria for “unacceptable” tissues included findings such as excess debris in the TM region, denudation of TM beams, loss of TM and/or Schlemm's canal cells, and breaks or collapse of Schlemm's canal. […]

[2] = test system: GTM-3 transformed human TM cells; experiment: TGF-β2-mediated fibronectin and PAI-1 in human TM cell culture supernatants, ELISA (FIG. 3); type: cell-based; details: human TM cell cultures, 24 h
Experimental: (§1) Generation and characterization of the GTM-3 transformed cell line has been previously described (Pang et al., Curr Eye Res., 1994; Vol. 13:51-63). Briefly, maintenance growth medium consisted of Dulbecco's modified Eagle's medium with Glutamax I (Gibco/BRL, Grand Island, N.Y.) supplemented with 10% fetal bovine serum (Hyclone, Logan, Utah) and 50 μg/mL gentamicin (Gibco/BRL). For assay, cultures were trypsinized and seeded into 24-well plates (Corning Costar, Acton, Mass.) and allowed to grow until monolayers reached approximately 90% confluence. Culture medium was then replaced with 0.25 mL serum- and antibiotic-free medium containing the appropriate test compound(s). Cells were incubated 24 h, at 5% CO2 and 37° C. Aliquots of culture supernatants were then assayed for fibronectin and/or PAI-1 content by ELISA.

[3] = test system: GTM-3 transformed human TM cells; experiment: Pro-collagen type I C-peptide (PIP) in human TM cell cultures, ELISA (FIG. 4); type: cell-based; details: 24 h
Experimental: For this experiment, cultured transformed GTM-3 cells (Pang et al., Curr Eye Res., 1994; Vol. 13:51-63) were grown in a growth medium consisting of Dulbecco's modified Eagle's medium with Glutamax I (Gibco/Invitrogen, Grand Island, N.Y.) supplemented with 10% fetal bovine serum (Hyclone, Logan, Utah) and 50 μg/mL gentamicin (Gibco/Invitrogen). For assay, cultures were enzymatically-dissociated (TrypLE Express; Gibco/Invitrogen) then seeded into 24-well plates (Corning Costar, Acton, Mass.) and allowed to grow until monolayers reached approximately 90-95% confluence. Culture medium was then replaced with 0.25 mL serum- and antibiotic-free medium containing the appropriate test compound(s). Cells were incubated 24 h, at 5% CO2 and 37° C. Aliquots of culture supernatants were then assayed using an ELISA kit for procollagen Type I C-peptide (TaKaRa Bio, Shiga, Japan).
Collagens are synthesized as pro-collagens, most of which contain additional peptide sequences called “propeptides”. Propeptides are located at both the N- and C-terminal ends of the molecules. These propeptides serve to facilitate formation of the mature collagen's triple helical structure from pro-collagens within the endoplasmic reticulum. […]

ALK5 = target: T1, ALK5 (Homo sapiens, UniProt P36897); details: Brit J Pharmacol. 2005; 145:166-177; read-out: IC50, inhibition of phosphorylation of ALK5; cited from earlier work
T1 sequence (P36897 34-503): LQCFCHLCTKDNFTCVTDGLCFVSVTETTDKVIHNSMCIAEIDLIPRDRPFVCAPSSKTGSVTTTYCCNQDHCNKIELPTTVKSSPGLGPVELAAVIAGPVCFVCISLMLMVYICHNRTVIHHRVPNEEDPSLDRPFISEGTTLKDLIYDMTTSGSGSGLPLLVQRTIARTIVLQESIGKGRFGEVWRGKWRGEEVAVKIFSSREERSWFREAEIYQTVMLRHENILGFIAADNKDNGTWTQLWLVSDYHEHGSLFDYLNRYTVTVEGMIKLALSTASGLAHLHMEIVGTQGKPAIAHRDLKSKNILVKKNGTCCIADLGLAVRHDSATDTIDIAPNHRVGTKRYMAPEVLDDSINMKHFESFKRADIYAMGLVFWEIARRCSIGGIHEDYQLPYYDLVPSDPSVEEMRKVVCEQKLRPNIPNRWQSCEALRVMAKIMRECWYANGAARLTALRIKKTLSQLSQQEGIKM

TGF-β Type II receptors = TGF-β Type II receptors (Homo sapiens, UniProt P37173); details: Brit J Pharmacol. 2005; 145:166-177; read-out: IC50, phosphorylation of TGF-β Type II receptors; cited from earlier work
p38 MAPK = p38 MAPK (Homo sapiens, UniProt Q16539); details: Brit J Pharmacol. 2005; 145:166-177; read-out: IC50, phosphorylation of p38 MAPK; cited from earlier work
GTM686-03 = experiment: Effect of TGF-β2 on HTM cell secretion of fibronectin and PAI-1; type: cell-based, human; details: 24 hours
Experimental: as §1
(§2) TABLE 1, shown below, summarizes the results of a study measuring the effect of TGF-β2 on ECM-related protein levels (fibronectin, PAI-1) in cultured TM cells of various strains. TGF-β2 was present in the cultures at a concentration of 5 ng/mL, and protein levels (mean±s.e.m.) were measured after 24 hours.

SGTM2697 = experiment: as above; type: cell-based, human; details: 24 hours
Experimental: as §1, §2

SGTM1233-99 = experiment: as above; type: cell-based, human; details: 24 hours
Experimental: as §1, §2

NTM25-91 = experiment: as above; type: cell-based, human; details: 24 hours
Experimental: as §1, §2

GTM29-01 = experiment: as above; type: cell-based, human; details: 24 hours
Experimental: as §1, §2

NTM875-03 = experiment: as above; type: cell-based, human; details: 24 hours
Experimental: as §1, §2

GTM730-03 = experiment: as above; type: cell-based, human; details: 24 hours
Experimental: as §1, §2

NTM35 = experiment: as above; type: cell-based, human; details: 24 hours
Experimental: as §1, §2

NTM553-02 = experiment: as above; type: cell-based, human; details: 24 hours
Experimental: as §1, §2

NTM974-03 = experiment: as above; type: cell-based, human; details: 24 hours
Experimental: as §1, §2

GTM-3 = experiment: as above; type: cell-based, human; details: 24 hours
Experimental: as §1, §2

[4] = test system: perfused human anterior segment model; experiment: Perfused human anterior segment model, IOP (FIG. 1); details: TGF-β2 infused at 5 ng/mL
Experimental: FIG. 1 is a graph showing the effect of infused TGF-β2 on a perfused human anterior segment model. All donor eyes used in this model were used according to the provisions of the Declaration of Helsinki for research involving human tissue, and were used within 24 hours post-mortem. No donors were known to have a history of glaucoma or other ocular disorder.
Human ocular perfusion organ culture was performed as described in available literature. [Tschumper et al., Curr Eye Res., 1990; Vol. 9:363-369; Clark et al., Invest Ophthalmol Vis Sci., 1995; Vol. 36:478-489; Pang et al., J Glaucoma, 2000; Vol. 9:468-479; Pang et al., Invest Ophthalmol Vis Sci., 2003; Vol. 44:3502-3510]. Briefly, anterior segments were dissected and mounted into custom Plexiglas culture chambers, then perfused with serum-free Dulbecco's modified Eagle's medium. IOP was monitored every 5 seconds and averaged each hour. Perfused tissue was allowed to equilibrate at 37° C. and 5% CO2 until a stable baseline IOP was achieved, typically 2-4 days; tissues with unstable IOP were discarded. Stable tissues were then further perfused with media containing the test compound(s) as indicated and changes in IOP were recorded. Eluate samples were collected daily for ELISA analysis of fibronectin and PAI-1 content. Tissues were fixed and evaluated for viability/morphology by light and electron microscopy at termination of each study. […]

Chain of p38 MAPK (Q16539 whole entry): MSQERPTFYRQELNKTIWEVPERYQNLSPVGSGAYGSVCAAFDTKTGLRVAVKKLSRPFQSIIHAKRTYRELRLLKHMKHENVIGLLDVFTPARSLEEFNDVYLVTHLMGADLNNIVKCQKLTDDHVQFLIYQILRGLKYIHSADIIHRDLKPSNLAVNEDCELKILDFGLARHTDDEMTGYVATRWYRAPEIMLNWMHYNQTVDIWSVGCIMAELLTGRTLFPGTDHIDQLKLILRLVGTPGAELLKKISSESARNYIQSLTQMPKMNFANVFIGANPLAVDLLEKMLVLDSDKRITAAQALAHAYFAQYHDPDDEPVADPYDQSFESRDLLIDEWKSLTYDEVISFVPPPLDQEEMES
Chain of TGF-β Type II receptors (P37173 23-567): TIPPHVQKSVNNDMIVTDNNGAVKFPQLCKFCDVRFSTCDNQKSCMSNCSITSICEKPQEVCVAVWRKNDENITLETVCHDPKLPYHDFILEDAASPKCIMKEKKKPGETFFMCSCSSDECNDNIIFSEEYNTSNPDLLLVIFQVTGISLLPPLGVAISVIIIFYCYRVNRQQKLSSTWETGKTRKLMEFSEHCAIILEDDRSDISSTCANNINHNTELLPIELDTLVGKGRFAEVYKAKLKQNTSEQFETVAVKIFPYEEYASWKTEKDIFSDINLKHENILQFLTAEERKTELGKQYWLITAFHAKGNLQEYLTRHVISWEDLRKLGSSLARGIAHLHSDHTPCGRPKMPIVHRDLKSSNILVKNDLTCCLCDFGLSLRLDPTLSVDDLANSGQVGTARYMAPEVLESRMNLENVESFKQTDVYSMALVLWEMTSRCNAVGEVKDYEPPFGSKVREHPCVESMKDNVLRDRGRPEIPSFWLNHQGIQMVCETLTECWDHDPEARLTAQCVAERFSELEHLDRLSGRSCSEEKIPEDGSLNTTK

## NC(=O)c1ccc(-c2nc(-c3ccc4c(c3)OCO4)c(-c3ccccn3)[nH]2)cc1 [Compound 1]
[1]
  TGF-β2-mediated increase in perfusate fibronectin content: completely antagonized
[2]
  Inhibition of TGF-β2-mediated increase in PAI-1 content in supernatants: dose-dependent inhibition
  Inhibition of TGF-β2-mediated increase in fibronectin content in supernatants: dose-dependent inhibition
[3]; cultures treated with both TGF-β2 and compound
  TGF-β2-dependent PIP elevation: eliminated

## c1ccc(-c2n[nH]cc2-c2ccnc3ccccc23)nc1 [Compound 2]
[2]
  Inhibition of TGF-β2-mediated increase in PAI-1 content in supernatants: dose-dependent inhibition
  Inhibition of TGF-β2-mediated increase in fibronectin content in supernatants: dose-dependent inhibition

## c1ccc(-c2cc(-c3cn[nH]c3-c3ccccn3)ccn2)cc1 [GW-6604]
ALK5
  IC50: ~0.14 µM
TGF-β Type II receptors
  IC50: 10 µM
p38 MAPK
  IC50: 9.5 µM

B1: TGF-β2: transforming growth factor-beta isoform 2, a cytokine acting on ALK5 (Type 1 TGF-β receptor) (protein, UniProt P61812 303-414, looked up)
Transforming growth factor …: ALDAAYCFRNVQDNCCLRPLYIDFKRDLGWKWIHEPKGYNANFCAGACPYLWSSDTQHSRVLSLYNTINPEASASPCCVSQDLEPLTILYYIGKTPKIEQLSNMIVKSCKCS
GTM686-03; TGF-β2 5 ng/mL vs control
  Fibronectin Fold Increase: 126
  PAI-1 Fold Increase: 2.5
GTM686-03; TGF-β2 5 ng/mL, mean±s.e.m.
  Fibronectin: 25.2 ± 9.6 μg/well
  PAI-1: 258.3 ± 28.1 ng/well
SGTM2697; TGF-β2 5 ng/mL vs control
  Fibronectin Fold Increase: 2.4
SGTM2697; TGF-β2 5 ng/mL, mean±s.e.m.
  Fibronectin: 19.5 ± 2^ μg/well
SGTM1233-99; TGF-β2 5 ng/mL vs control
  Fibronectin Fold Increase: 3.1
  PAI-1 Fold Increase: 2.9
SGTM1233-99; TGF-β2 5 ng/mL, mean±s.e.m.
  Fibronectin: 12.2 ± 2.1 μg/well
  PAI-1: 256.5 ± 35.4 ng/well
NTM25-91; TGF-β2 5 ng/mL vs control
  Fibronectin Fold Increase: 6.2
NTM25-91; TGF-β2 5 ng/mL, mean±s.e.m.
  Fibronectin: 19.3 ± 1.5 μg/well
GTM29-01; TGF-β2 5 ng/mL vs control
  Fibronectin Fold Increase: 9.4
  PAI-1 Fold Increase: 3.9
GTM29-01; TGF-β2 5 ng/mL, mean±s.e.m.
  Fibronectin: 9.4 ± 2.6 μg/well
  PAI-1: 260.5 ± 13.6 ng/well
NTM875-03; TGF-β2 5 ng/mL vs control
  Fibronectin Fold Increase: 19.2
  PAI-1 Fold Increase: 2.6
NTM875-03; TGF-β2 5 ng/mL, mean±s.e.m.
  Fibronectin: 9.6 ± 3.8 μg/well
  PAI-1: 282.6 ± 11.6 ng/well
GTM730-03; TGF-β2 5 ng/mL vs control
  Fibronectin Fold Increase: 32.8
  PAI-1 Fold Increase: 2.2
GTM730-03; TGF-β2 5 ng/mL, mean±s.e.m.
  Fibronectin: 26.2 ± 1.6 μg/well
  PAI-1: 268.8 ± 3.9 ng/well
NTM35; TGF-β2 5 ng/mL vs control
  Fibronectin Fold Increase: 4.1
NTM35; TGF-β2 5 ng/mL, mean±s.e.m.
  Fibronectin: 13 ± 2.7 μg/well
NTM553-02; TGF-β2 5 ng/mL vs control
  Fibronectin Fold Increase: 6.7
  PAI-1 Fold Increase: 2.5
NTM553-02; TGF-β2 5 ng/mL, mean±s.e.m.
  Fibronectin: 10.1 ± 1.1 μg/well
  PAI-1: 315.9 ± 9.5 ng/well
NTM974-03; TGF-β2 5 ng/mL vs control
  Fibronectin Fold Increase: 2.3
  PAI-1 Fold Increase: 2.8
NTM974-03; TGF-β2 5 ng/mL, mean±s.e.m.
  Fibronectin: 8.9 ± 1.5 μg/well
  PAI-1: 297.7 ± 23.1 ng/well
GTM-3; TGF-β2 5 ng/mL vs control
  Fibronectin Fold Increase: 5.4
  PAI-1 Fold Increase: 19.4
GTM-3; TGF-β2 5 ng/mL, mean±s.e.m.
  Fibronectin: 16.7 ± 1^ μg/well
  PAI-1: 266 ± 8 ng/well
[3]; TGF-β2-treated cultures, both study replicates
  PIP levels compared to vehicle: greatly elevated
[4]; after 72 hours
  IOP relative to control: almost double
[4]; within 24 hours
  IOP compared to control: elevated IOP
